Laboratory results: patent publication US20240366778A1 (CSPC MEGALITH BIOPHARMARCEUTICAL, published 2024)
Changes are numbered by the printed parent chain.

B1: humanized antibody SWY2001-Ab3 (antibody, human IgG1, kappa, V domains shown)
VH: QVQLVQSGAEVKKPGASVKVSCKASGYTFTSYYIHWVRQAPGQRLEWMGWIYPGNVNTKYNENFRDRVTITRDTSASTAYMELSSLRSEDTAVYYCARGIYYFDYWGQGTLVTVSS
VL: AIQMTQSPSSLSASVGDRVTITCKASQSVNNDVAWYQQKPGKAPKLLIYYASNRDTGVPSRFSGSGSGTDFTLTISSLQPEDFATYFCHQDYSSPFTFGGGTKVEIKR
notes: Full-length IgG1, kappa
B2: humanized antibody SWY2001-Ab1 (antibody, human IgG1, kappa, V domains shown)
VH: B1 VH
VL: B1 VL with A1I, S9K, S10F, K42Q, A43S, S60D
B3: humanized antibody SWY2001-Ab2 (antibody, human IgG1, kappa, V domains shown)
VH: B1 VH
VL: B1 VL with P80A, F83L, T85V
notes: Full-length IgG1, kappa
B4: PADCEV (antibody, INN chains, looked up, V domains shown)
VH: EVQLVESGGGLVQPGGSLRLSCAASGFTFSSYNMNWVRQAPGKGLEWVSYISSSSSTIYYADSVKGRFTISRDNAKNSLSLQMNSLRDEDTAVYYCARAYYYGMDVWGQGTTVTVSS
VL: DIQMTQSPSSVSASVGDRVTITCRASQGISGWLAWYQQKPGKAPKFLIYAASTLQSGVPSRFSGSGSGTDFTLTISSLQPEDFATYYCQQANSFPPTFGGGTKVEIKR
modifications: vedotin (MMAE) payload
B5: Chimeric antibody (antibody, V domains shown)
VH: QVQLQQSGPVLVKPGASVRISCKASGYTFTSYYIHWVKQRPGQGLEWIGWIYPGNVNTKYNENFRDKATLTADKSSSTSYMQLSSLTSEDSAVYFCARGIYYFDYWGQGTTLTVSS
VL: IIVMTQTPKFLLVSAGDRVTITCKASQSVNNDVAWYQEKPGQSPKLLIYYASNRDTGVPDRFTGSGYGTDFTFTISTVQAEDLAVYFCHQDYSSPFTFGSGTKLEIK
notes: also called chimeric anti-Nectin-4 antibody; murine antibody variable regions on human IgG1

Target: T1, Recombinant Rat Nectin-4 His-tag Protein, CF (rat, UniProt D3ZET1 31-348)
T1 construct: not shown: His tag
T1 sequence: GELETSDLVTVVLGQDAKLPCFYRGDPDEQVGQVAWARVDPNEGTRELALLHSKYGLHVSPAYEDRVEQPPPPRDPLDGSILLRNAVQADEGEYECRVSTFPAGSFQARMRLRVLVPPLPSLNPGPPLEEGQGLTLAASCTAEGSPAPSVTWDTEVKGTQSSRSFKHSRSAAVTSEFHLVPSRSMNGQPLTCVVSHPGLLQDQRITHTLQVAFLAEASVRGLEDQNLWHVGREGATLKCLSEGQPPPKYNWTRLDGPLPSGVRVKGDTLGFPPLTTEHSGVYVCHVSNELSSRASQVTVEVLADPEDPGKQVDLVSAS
Assay: ELISA, Nectin-4 protein with antibody dilutions, goat anti-human IgG secondary antibody
Description: (§1) The affinities of Nectin-4 humanized antibodies to Nectin-4 proteins of different species were performed by ELISA. Nectin-4 proteins of different species (human Nectin-4, cynomolgus Nectin-4, rat Nectin-4, mouse Nectin-4) were incubated with Nectin-4 humanized antibody samples of different concentrations, and then incubated with the secondary antibody which binds IgG (Goat anti-Human IgG (H+L) Cross-Adsorbed Secondary Antibody. The signal values of different concentrations were detected by ELISA to analyze the affinities of the samples to Nectin-4 proteins of different species. The experimental results are shown in Table 6, showing that the Nectin-4 humanized antibodies have good affinity for human, rat and cynomolgus Nectin-4 proteins.

In order of falling EC50:
1. B1  0.000942 µg/mL
2. B2  0.000857 µg/mL
3. B3  0.000726 µg/mL

Target: T2, Cynomolgus Nectin-4 Protein, His Tag (cynomolgus, UniProt A0A2K5WES1 32-349)
T2 construct: not shown: His tag
T2 sequence: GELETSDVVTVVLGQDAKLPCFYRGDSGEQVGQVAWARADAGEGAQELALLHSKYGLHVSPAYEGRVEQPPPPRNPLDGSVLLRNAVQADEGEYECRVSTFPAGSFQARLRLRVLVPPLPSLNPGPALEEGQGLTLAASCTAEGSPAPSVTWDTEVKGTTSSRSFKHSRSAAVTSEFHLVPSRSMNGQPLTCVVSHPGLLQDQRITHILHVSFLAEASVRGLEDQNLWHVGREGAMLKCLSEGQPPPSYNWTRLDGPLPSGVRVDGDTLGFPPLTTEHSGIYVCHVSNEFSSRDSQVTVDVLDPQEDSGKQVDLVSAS
Assay: as above
Description: as §1

In order of falling EC50:
1. B1  0.000832 µg/mL
2. B2  0.000647 µg/mL
3. B3  0.000646 µg/mL

Target: T3, Mouse Nectin-4 Protein, His Tag (mouse, UniProt Q8R007 31-347)
T3 construct: not shown: His tag
T3 sequence (looked up): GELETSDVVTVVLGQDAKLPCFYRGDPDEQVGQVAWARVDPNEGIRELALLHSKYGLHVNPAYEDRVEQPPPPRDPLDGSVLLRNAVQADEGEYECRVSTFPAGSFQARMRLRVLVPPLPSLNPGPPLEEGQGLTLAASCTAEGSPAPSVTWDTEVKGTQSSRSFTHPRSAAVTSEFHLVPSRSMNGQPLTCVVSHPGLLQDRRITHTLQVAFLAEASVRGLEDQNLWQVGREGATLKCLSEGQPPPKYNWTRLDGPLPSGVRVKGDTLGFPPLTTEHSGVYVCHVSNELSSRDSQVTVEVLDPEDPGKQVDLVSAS
Assay: as above
Description: as §1

In order of rising EC50:
1. B4  0.0824 µg/mL
2. B3  1050 µg/mL
3. B1  2210 µg/mL

Target: T4, Human Nectin-4 Protein, His Tag (human, UniProt Q96NY8 32-349)
T4 construct: not shown: His tag
T4 sequence (looked up): T2 sequence with A39V, V230I
Assay: as above
Description: as §1

In order of falling EC50:
1. B2  0.00121 µg/mL
2. B3  0.00113 µg/mL
3. B1  0.00102 µg/mL
4. B4  0.000877 µg/mL

Target: T4, Human Nectin-4 Protein, His Tag
Assay: BLI (Fortebio), antibody with human Nectin-4 protein
Description: In this experiment, Fortebio was used to detect the affinity of Nectin-4 humanized antibodies to human Nectin-4 protein. After the Nectin-4 protein was incubated with the anti-Nectin-4 antibody sample, the signal value was detected by Fortebio to analyze the affinity of the sample to human Nectin-4. […] The chimeric antibodies were engineered on the basis of mouse-derived antibodies, and the constant region is selected from human IgG1.

In order of rising Kd:
1. B5  2.8 nM
2. B1  5.08 nM
3. B3  5.51 nM
4. B2  5.92 nM

In order of rising koff:
1. B5  0.00181 s⁻¹
2. B3  0.00414 s⁻¹
3. B1  0.00425 s⁻¹
4. B2  0.00447 s⁻¹

In order of rising kon:
1. B5  646000 M⁻¹ s⁻¹
2. B3  752000 M⁻¹ s⁻¹
3. B2  756000 M⁻¹ s⁻¹
4. B1  836000 M⁻¹ s⁻¹

Target: T5, Recombinant Rat Nectin-4 His-tag Protein, CF (rat) (UniProt D3ZET1)
T5 sequence: T1 sequence
Assay: ELISA, Nectin-4 protein with antibody dilutions, goat anti-human IgG secondary antibody

B4 showed an EC50 of 0.00101 µg/mL.

Target: Cynomolgus Nectin-4 Protein, His Tag (cynomolgus)
Assay: as above

In the case of B4, the EC50 is reported as 0.000968 µg/mL.
